The PETadex activity labels (doi:10.1016/j.eti.2025.104587)

Key:
PET = test: Proxy for plastic degradation [Weight/mass loss]; details: pH 7.5; 0 h
pNPB = test: Proxy for plastic degradation [p-nitrophenol (pNP) release] (% relative activity)

B1: unnamed (protein)
chain: MKSVLARARLVAAATAMLAFAAWALVSAAPAVEAQSNPYQRGPNPTRSALTADGPFSVSTYSVSGLSVSGFGGGVIYYPTGTTLTFGGIAMSPGYTASSSSLAWLGRRLASHGFVVLVIDTITRLDFPDSRASQLSAALNYLRTSSPSTVRARLDGTRLAVAGHSMGGGGTLRVSEQLPSLKAGVPLTPWHTDKTFNTSVPQLIVGAENDSVAPVSQHAIPFYQNLPSTTPKVYVELNNASHFAPNTSNATISVYTISWMKLWVDNDTRYRPFLCNVSDASLSDFRSNNRHCQ
Q: Which “Proxy for plastic degradation” value (PET) does the source give for B1 here?
A: The value was 0%.

Q: And the “Proxy for plastic degradation” value (pNPB; pH 4)?
A: Its value is 0.

Q: What about the “Proxy for plastic degradation” value (pNPB; pH 5) of the same protein?
A: The value was 34.5.

Q: And the “Proxy for plastic degradation” value (pNPB; pH 6.5)?
A: The value was 75.

Q: What about the “Proxy for plastic degradation” value (pNPB; pH 7) of the same protein?
A: Its value is 86.5.

Q: And the “Proxy for plastic degradation” value (pNPB; pH 7.5)?
A: The value was 99.5.

Q: And the “Proxy for plastic degradation” value (pNPB; pH 7.5, 30 °C)?
A: Its value is 39.5.

Q: And the “Proxy for plastic degradation” value (pNPB; pH 7.5, 40 °C)?
A: Its value is 41.

Q: What about the “Proxy for plastic degradation” value (pNPB; pH 7.5, 50 °C) of the same protein?
A: The value was 48.

Q: What about the “Proxy for plastic degradation” value (pNPB; pH 7.5, 60 °C) of the same protein?
A: The value was 72.

Q: What about the “Proxy for plastic degradation” value (pNPB; pH 7.5, 70 °C) of the same protein?
A: The value was 99.

Q: What about the “Proxy for plastic degradation” value (pNPB; pH 7.5, 80 °C) of the same protein?
A: The value was 69.5.

Q: What about the “Proxy for plastic degradation” value (pNPB; pH 9) of the same protein?
A: Its value is 60.5.

Q: What about the “Proxy for plastic degradation” value (pNPB; pH 10) of the same protein?
A: The value was 45.5.
